Source: IntAct's records for PubMed 32101751

B1: Ubiquitin carboxyl-terminal hydrolase 15 (Homo sapiens), Q9Y4E8 (parent)
chain: MAEGGAADLDTQRSDIATLLKTSLRKGDTWYLVDSRWFKQWKKYVGFDSWDKYQMGDQNVYPGPIDNSGLLKDGDAQSLKEHLIDELDYILLPTEGWNKLVSWYTLMEGQEPIARKVVEQGMFVKHCKVEVYLTELKLCENGNMNNVVTRRFSKADTIDTIEKEIRKIFSIPDEKETRLWNKYMSNTFEPLNKPDSTIQDAGLYQGQVLVIEQKNEDGTWPRGPSTPKSPGASNFSTLPKISPSSLSNNYNNMNNRNVKNSNYCLPSYTAYKNYDYSEPGRNNEQPGLCGLSNLGNTCFMNSAIQCLSNTPPLTEYFLNDKYQEELNFDNPLGMRGEIAKSYAELIKQMWSGKFSYVTPRAFKTQVGRFAPQFSGYQQQDCQELLAFLLDGLHEDLNRIRKKPYIQLKDADGRPDKVVAEEAWENHLKRNDSIIVDIFHGLFKSTLVCPECAKISVTFDPFCYLTLPLPMKKERTLEVYLVRMDPLTKPMQYKVVVPKIGNILDLCTALSALSGIPADKMIVTDIYNHRFHRIFAMDENLSSIMERDDIYVFEININRTEDTEHVIIPVCLREKFRHSSYTHHTGSSLFGQPFLMAVPRNNTEDKLYNLLLLRMCRYVKISTETEETEGSLHCCKDQNINGNGPNGIHEEGSPSEMETDEPDDESSQDQELPSENENSQSEDSVGGDNDSENGLCTEDTCKGQLTGHKKRLFTFQFNNLGNTDINYIKDDTRHIRFDDRQLRLDERSFLALDWDPDLKKRYFDENAAEDFEKHESVEYKPPKKPFVKLKDCIELFTTKEKLGAEDPWYCPNCKEHQQATKKLDLWSLPPVLVVHLKRFSYSRYMRDKLDTLVDFPINDLDMSEFLINPNAGPCRYNLIAVSNHYGGMGGGHYTAFAKNKDDGKWYYFDDSSVSTASEDQIVSKAAYVLFYQRQDTFSGTGFFPLDRETKGASAATGIPLESDEDSNDNDNDIENENCMHTN
partner: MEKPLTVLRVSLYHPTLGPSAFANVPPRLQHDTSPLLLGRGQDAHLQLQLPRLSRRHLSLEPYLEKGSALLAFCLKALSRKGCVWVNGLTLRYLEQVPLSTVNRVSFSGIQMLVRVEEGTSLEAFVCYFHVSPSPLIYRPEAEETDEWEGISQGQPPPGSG

Variants of: B1
Details: with tifab_human TIFAB

effect of a mutation on the interaction | Variant
decreasing interaction strength | C298A
